Assay results reported in the supplement of paper PMC9170038.

Test system: MS2 coat protein
Experiment: apparent KD of MS2 coat protein; designed switch direction (-1 OFF switch, 1 ON switch): 1; higher = weaker reporter binding
Summary of the method: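 The reported apparent KD is a per-design median over clusters, from curve fits of normalised cluster fluorescence. Protein titrations used SNAP-549-labelled MS2 coat protein, doubled from 0.7 or 1.5 nM to 3 µM, in Tris-HCl pH 7.5 buffer with KCl, MgCl2, BSA, DTT, tRNA and Tween-20, with no input, 200 uM small-molecule ligand, or an oligonucleotide input. The RNA switches were transcribed on Illumina chips by stalled E. coli RNA polymerase.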

[1] = input ligand: microRNA oligo, concentration not stated
[2] = Eterna round: R95, input ligand: FMN 200 uM
[3] = Eterna round: R95, input ligand: microRNA oligo, concentration not stated
[4] = Eterna round: R95, input ligand: none

| Sequence | apparent KD of MS2 coat protein (input ligand: FMN 200 uM) | apparent KD of MS2 coat protein [1] | apparent KD of MS2 coat protein (input ligand: none) | apparent KD of MS2 coat protein [2] | apparent KD of MS2 coat protein [3] | apparent KD of MS2 coat protein [4] |
| --- | --- | --- | --- | --- | --- | --- |
| AGACACAUGAGGAUCACCCAUGUCAUGAGCUUAGCUCGGGCACAGGAUAUCCGGUCCUAGAGACCGGAGAAGGGUGGCCGAAAA [Zara MOD] (Eterna round: R96, puzzle: Same State NG 3) | 0.396 µM | 0.323 µM | 0.67 µM |  |  |  |
| AAGAAACAUGAGGAUCACCCAUGUCGAAAUAACACAGGAUAUCGCACGACUACGGUGCGGCGAGAAGGGUGAGGAA [Estere] (puzzle: Same State 1) |  |  |  | 0.0547 µM | 0.0784 µM | 0.0947 µM |
| AAUUAAGAUCUAGGAUAUCACGUCGUUUAGACGUGAGAAGGAGAUCAUAACAUGAGGAUCACCCAUGUAUUACAUGAAUUAAUU [SSNG1/6-B3] (Eterna round: R96, puzzle: Same State NG 1) | 0.0242 µM | 0.0229 µM | 0.0285 µM |  |  |  |
| AGAAAACAUGAGGAUCACCCAUGUAUAGUGAAUACAGGAUAUCACCAACGGAAUAGUCGGUGAGAAGGGUGAUCGC [Zaxelate] (puzzle: Same State 1) |  |  |  | 0.0185 µM | 0.0113 µM | 0.0142 µM |
| UUACUCCCUACAUGAGGAUCACCCAUGUUUUACAAACCCAACGAGGAUAUGUUGAGCGGAUGUAAGCAGAAGGCGUAGGGUAGA [Eternabot solution 37] (Eterna round: R96, puzzle: Same State NG 3) | 0.143 µM | 0.0167 µM | 0.04 µM |  |  |  |
| GCCGCAAGGGCAGGAUAUGGGUCCAGAGUGCAAAUGCACUCCGGUACAUGAGGAUCACCCAUGUCCCAGAAGGGCCCAAGCGGC [Bilaatdi] (Eterna round: R96, puzzle: Same State NG 2) | 0.0128 µM | 0.144 µM | 0.163 µM |  |  |  |
| GGUAUGGACACAGGAUAUGCUUACGAAACGUAAGCAGAAGGGUGAACAUGAGGAUCACCCAUGUACGUGCCAGGGCGUGAGCCC [JL SSNG1 1.77] (Eterna round: R96, puzzle: Same State NG 1) | 1.42 µM | 0.0298 µM | 0.92 µM |  |  |  |
| GGAGCCGGCACCGAGGAUAUUCAUAUUAAAACAUGAGGAUCACCCAUGUAGGCCAGAAGGCCUUGGGAGAAGGCGGACCGGCUCG [Xeonanis - 4] (Eterna round: R96, puzzle: Same State 2) | 0.0274 µM | 0.165 µM | 0.287 µM |  |  |  |
| AGCAGAGAAAUAGGAUAUGGCUGAGACAUGACGGCGGUACAUGAGGAUCACCCAUGUCCGCAAAGCCAGAAGGGUUUUGAAUGU [Ticecexe] (Eterna round: R96, puzzle: Same State NG 2) | 0.0137 µM | 0.0165 µM | 0.0334 µM |  |  |  |
| UGAACCUUCACAGGAUAUCAUGCGAAAAUUGCGUGAGAAGGGUGAAUAUGGUGUUCAUAGUUGCACAUGAGGAUCACCCAUGUA [SameState NG1 #53] (Eterna round: R96, puzzle: Same State NG 1) |  | 0.0923 µM |  |  |  |  |
| GUGCGGGUAAGAGGAUAUACAAAUUCUCGUUCUGAGACGAGAACAUGAGGAUCACCCAUGUCUAAGUAGAAGGUUUCAGGCACC [Eternabot solution 28] (Eterna round: R96, puzzle: Same State NG 2) | 0.0213 µM | 0.0182 µM | 0.023 µM |  |  |  |
| GUAGCAUACCGAGGAUAUUCAUAUAAUAACAUGAGGAUCACCCAUGUUUAUAGGCGAAAGCCUUGGGAGAAGGCGGAAUGCUAC [Xeonanis - 20 Mod63] (Eterna round: R96, puzzle: Same State NG 2) | 0.0104 µM | 0.0123 µM | 0.0188 µM |  |  |  |
| CCGAUGCUUAUAAAACAUGAGGAUCACCCAUGUGAGACACAUGAGGAUAUGCAGGUCAAAGACUUGCAGAAGGCAUAGCGUCGG [JL SSNG3 3.88] (Eterna round: R96, puzzle: Same State NG 3) |  | 0.36 µM |  |  |  |  |
| GUGGUCAGACAUGAGGAUCACCCAUGUGGAAUAAAUAACAACUAGGAUAUGUAAUAUAGGAUAUAACAGAAGGAGUGAUUGGUG (Eterna round: R96, puzzle: Same State NG 3) |  | 0.111 µM |  |  |  |  |
| UUUGGGUGGCUGGAGGAUAUUCUUGUGGUUACAUGAGGAUCACCCAUGUGUCGCGCGGUGCGCGAGGAGAAGGCUGGCGGCCGUU (puzzle: Same State 2) |  |  |  |  | 0.186 µM |  |
| GGCCAGAGUCAAGGAUAUGCUACCGUUUCGGUAGCAGAAGGUGAUCACAUGAGGAUCACCCAUGUUUACUGCGAGAGUAUGGCC [JL SSNG1 3.67] (Eterna round: R96, puzzle: Same State NG 1) | 0.661 µM | 0.197 µM | 0.214 µM |  |  |  |

| Sequence | apparent KD of MS2 coat protein (input ligand: FMN 200 uM) | apparent KD of MS2 coat protein [1] | apparent KD of MS2 coat protein (input ligand: none) | apparent KD of MS2 coat protein [2] | apparent KD of MS2 coat protein [3] | apparent KD of MS2 coat protein [4] |
| --- | --- | --- | --- | --- | --- | --- |
| UGGCUCAGAGCAGGAUAUAUGUAAUAACAUGAGGAUCACCCAUGUGUCGAGCUUCGGCUCGACACAUAGAAGGGCUCUGAGCCU [SSNG2/2-B3] (Eterna round: R96, puzzle: Same State NG 2) | 0.012 µM | 0.0288 µM | 0.0403 µM |  |  |  |
| GCGAGCGUACUUGCAGACAUGAGGAUCACCCAUGUAACUGGGUAGGAUAUGGUACCGUUUCGGUACCAGAAGGACUUAUGAAAG [JL SSNG3 1.50] (Eterna round: R96, puzzle: Same State NG 3) | 0.067 µM | 0.035 µM | 0.0544 µM |  |  |  |
| ACAUGAGAAGGAGGAUAUUUUGUACCUACAUGUGACAUGAGGAUCACCCAUGUGGUAAGUAUGAGAAAGAAGGCCUAGAUAUGU [Equivalence 15 - Jieux - Same State NG 2] (Eterna round: R96, puzzle: Same State NG 2) | 0.0213 µM | 0.021 µM | 0.0363 µM |  |  |  |
| AUAAGACACAUGAGGAUCACCCAUGUGGCCGUAGUCGGCUCACAGGAUAUCAAGCUACUAGUGCUUGAGAAGGGUGAGACAAGC [Raar Mod] (Eterna round: R96, puzzle: Same State NG 3) | 0.0573 µM | 0.19 µM | 0.323 µM |  |  |  |
| ACACCACAUGAGGAUCACCCAUGUGUCAAUAACACAGGAUAUCACCCGGAAUACACCGGGUGAGAAGGGUGACCGA [Gesois] (puzzle: Same State 1) |  |  |  | 0.158 µM | 0.0301 µM | 0.0254 µM |
| AAACAUGAGCGAGGAUAUACAUGAGGAUCACCCGUAGAAGGCGCAUGUAAAACAACAUGAGGAUCACCCAUGUCAUGUACAUGA [Same State NG1 S1] (Eterna round: R96, puzzle: Same State NG 1) | 0.0615 µM | 0.055 µM | 0.0669 µM |  |  |  |
| GAGGGCGGAAACAACAUGAGGAUCACCCAUGUUGCCGAAAGGCAGGAUAUCCGGCGAAAGCAGAAGGAGAAGGGUCGAAAAGAA [AK SSNG3-V2-41] (Eterna round: R96, puzzle: Same State NG 3) | 0.0207 µM | 0.02 µM | 0.0241 µM |  |  |  |
| GUACAUAUCAGAGGAUAUCACGUCGUUUAGACGUGAGAAGGCUGAUCACACAUGAAUAUUAAUACAUGAGGAUCACCCAUGUAC [SSNG1/13-A3] (Eterna round: R96, puzzle: Same State NG 1) | 0.0238 µM | 0.0312 µM | 0.0327 µM |  |  |  |
| CGUAGGUAGCUGGAGGAUAUUCGAGUGGUAACAUGAGGAUCACCCAUGUGGAGUUAGGUACAUGAGGAGAAGGCUAGCUGCCUGC [JL-ss2-3.18 JL mod] (puzzle: Same State 2) |  |  |  | 0.0104 µM | 0.023 µM | 0.0274 µM |
| GUUACAUGAGGAUCACCCAUGUAUGUGUGGGAGUAAGUGUCUUAGGAUAUCUAGUAUUUAAUCUAAGAGAAGGAAGAUUGUUGU [JMF's solution 65] (Eterna round: R96, puzzle: Same State NG 3) | 0.105 µM | 0.0741 µM | 0.128 µM |  |  |  |
| GUGGCGGGUUGAGGAUAUUGGUUGCCGCUGUUUUACAUGAGGAUCACCCAUGUGGGUUGCGGUUUCGAGAAGGGCGGUUGCUGG [salish99_SSNG2_r04_056] (Eterna round: R96, puzzle: Same State NG 2) | 0.0182 µM | 0.0146 µM | 0.024 µM |  |  |  |
| AUAAAUAACACAGGAUAUCCGCACGAGUAGUACGGAGAAGGGUGAACGUCGGCUCUCGCCAACAUGAGGAUCACCCAUGUAAAA [Usesesana] (Eterna round: R96, puzzle: Same State NG 1) | 1.16 µM | 0.432 µM | 0.734 µM |  |  |  |
| GUAGCAUACCGAGGAUAUUCAUACCGGAAACGGACAUGAGGAUCACCCAUGUGGCGAAAGCCUUGGGAGAAGGCGGAAUGCUAC [Xeonanis - 20 Mod75] (Eterna round: R96, puzzle: Same State NG 2) | 0.0184 µM | 0.341 µM | 0.675 µM |  |  |  |
| GGUGUACAUGAGGAUCACCCAUGUCGACCGCUCACAGGAUAUUUAUUACAAACUGGUAGCGGAGAAGGGUGAGGGC [Maarraar] (puzzle: Same State 1) |  |  |  | 0.0364 µM | 0.0326 µM | 0.0376 µM |
| GGCCAGAGUCAAGGAUAUGCUACCGUUUCGGUAGCAGAAGGUGAUCACAUGAGGAUCACCCAUGUUUACUGCGAGAGCAUGGCC [JL SSNG1 3.68] (Eterna round: R96, puzzle: Same State NG 1) | 0.809 µM | 0.103 µM | 0.0341 µM |  |  |  |
